For 15 molecules, optical density results are on record in patent US20210380703A1.

The labels stand for the following.
B1: 370_G06 (antibody, V domains shown)
VH: EVQLLESGGGLVQPGGSLRLSCAASGFTFSDYGMHWVRQAPGKGLEWVSSINYNGGYTSYADSVKGRFTISRDNSKNTLYLQMNSLRAEDTAVYYCARSANWHDTALDYWGQGTLVTVSS
VL: DIQMTQSPSSLSASVGDRVTITCRASQSILSYVNWYQQKPGKAPKLVIYAATSRASGVPSRFSGSGSGTDFTLTISSLQPEDFATYYCQQSDNTPLTFGGGTKVEIK
B2: 371_F01 (antibody, V domains shown)
VH: EVQLLESGGGLVQPGGSLRLSCAASGFTFSSYSMNWVRQAPGKGLEWVAGINYNGGYTGYADSVKGRFTISRDNSKNTLYLQMNSLRAEDTAVYYCARSANWHDTALDYWGQGTLVTVSS
VL: DIQMTQSPSSLSASVGDRVTITCRASQSILTYVNWYQQKPGKAPKLVIYAATSLASGVPSRFSGSGSGTDFTLTISSLQPEDFATYYCQQSYNNPLTFGGGTKVEIK
B3: 371_A08 (antibody, V domains shown)
VH: EVQLLESGGGLVQPGGSLRLSCAASGFTFSSYGMHWVRQAPGKGLEWVSSINYNGGYTSYADSVKGRFTISRDNSKNTLYLQMNSLRAEDTAVYYCARSANWHDTALDYWGQGTLVTVSS
VL: DIQMTQSPSSLSASVGDRVTITCRASQSILSYLNWYQQKPGKAPKLVIYAATSRASGVPSRFSGSGSGTDFTLTISSLQPEDFATYYCQQSYELPLTFGGGTKVEIK
B4: 371_A03 (antibody, V domains shown)
VH: EVQLLESGGGLVQPGGSLRLSCAASGFTFSDYGMNWVRQAPGKGLEWVANINYNGGYTGYADSVKGRFTISRDNSKNTLYLQMNSLRAEDTAVYYCARSANWHDTALDYWGQGTLVTVSS
VL: DIQMTQSPSSLSASVGDRVTITCRASQSILSYLNWYQQKPGKAPKLVIYATTSRASGVPSRFSGSGSGTDFTLTISSLQPEDFATYYCQQSYESPLTFGGGTKVEIK
B5: 370_G10 (antibody, V domains shown)
VH: EVQLLESGGGLVQPGGSLRLSCAASGFTFSDYGMNWVRQAPGKGLEWVSGINYNSGYTSYADSVKGRFTISRDNSKNTLYLQMNSLRAEDTAVYYCARSANWHDTALDYWGQGTLVTVSS
VL: DIQMTQSPSSLSASVGDRVTITCRASQSISSYLNWYQQKPGKAPKLLIYVVNNRASGVPSRFSGSGSGTDFTLTISSLQPEDFATYYCQQSYENPLTFGGGTKVEIK
B6: 371_B06 (antibody, V domains shown)
VH: EVQLLESGGGLVQPGGSLRLSCAASGFTFDSYSMNWVRQAPGKGLEWVAGINYNGGYKSYADSVKGRFTISRDNSKNTLYLQMNSLRAEDTAVYYCARSANWHDTALDYWGQGTLVTVSS
VL: DIQMTQSPSSLSASVGDRVTITCRASQSILTYVNWYQQKPGKAPKLVIYAATSRHSGVPSRFSGSGSGTDFTLTISSLQPEDFATYYCQQSYNLPLTFGGGTKVEIK
B7: 371_D09 (antibody, V domains shown)
VH: EVQLLESGGGLVQPGGSLRLSCAASGFTFSSYSMNWVRQAPGKGLEWVSNINYNSGYTGYADSVKGRFTISRDNSKNTLYLQMNSLRAEDTAVYYCARSANWHDTALDYWGQGTLVTVSS
VL: DIQMTQSPSSLSASVGDRVTITCRASQSILTYLNWYQQKPGKAPKLVIYAATSRASGVPSRFSGSGSGTDFTLTISSLQPEDFATYYCQQSYNNPLTFGGGTKVEIK
B8: 371_A12 (antibody, V domains shown)
VH: EVQLLESGGGLVQPGGSLRLSCAASGFTFDSYSMNWVRQAPGKGLEWVAGINYNSGYTSYADSVKGRFTISRDNSKNTLYLQMNSLRAEDTAVYYCARSANWHDTALDYWGQGTLVTVSS
VL: DIQMTQSPSSLSASVGDRVTITCRASQSILSYVNWYQQKPGKAPKLVIYAATSLASGVPSRFSGSGSGTDFTLTISSLQPEDFATYYCQQSYDTPLTFGGGTKVEIK
B9: 371_B07 (antibody, V domains shown)
VH: EVQLLESGGGLVQPGGSLRLSCAASGFTFDSYSMNWVRQAPGKGLEWVAGINYNGGYTSYADSVKGRFTISRDNSKNTLYLQMNSLRAEDTAVYYCARSANWHDTALDYWGQGTLVTVSS
VL: DIQMTQSPSSLSASVGDRVTITCRASQSILTYVNWYQQKPGKAPKLLIYAATSRASGVPSRFSGSGSGTDFTLTISSLQPEDFATYYCQQSYELPLTFGGGTKVEIK
B10: 371_A06 (antibody, V domains shown)
VH: EVQLLESGGGLVQPGGSLRLSCAASGFTFSSYGMNWVRQAPGKGLEWVAGINYNGGYTSYADSVKGRFTISRDNSKNTLYLQMNSLRAEDTAVYYCARSANWHDTALDYWGQGTLVTVSS
VL: DIQMTQSPSSLSASVGDRVTITCRASQSILTYLNWYQQKPGKAPKLVIYAATSRHSGVPSRFSGSGSGTDFTLTISSLQPEDFATYYCQQSYDSPLTFGGGTKVEIK
B11: 370_H09 (antibody, V domains shown)
VH: EVQLLESGGGLVQPGGSLRLSCAASGFTFSSYGMNWVRQAPGKGLEWVANINYNGGYTSYADSVKGRFTISRDNSKNTLYLQMNSLRAEDTAVYYCARSANWHDTALDYWGQGTLVTVSS
VL: DIQMTQSPSSLSASVGDRVTITCRASQSIVSYVNWYQQKPGKAPKLLIYAATSRASGVPSRFSGSGSGTDFTLTISSLQPEDFATYYCQQSYDNPLTFGGGTKVEIK
B12: 370_G09 (antibody, V domains shown)
VH: EVQLLESGGGLVQPGGSLRLSCAASGFTFSSYGMNWVRQAPGKGLEWVAGINYNGGYKSYADSVKGRFTISRDNSKNTLYLQMNSLRAEDTAVYYCARSANWHDTALDYWGQGTLVTVSS
VL: DIQMTQSPSSLSASVGDRVTITCRASQSILSYVNWYQQKPGKAPKLVIYAATSRASGVPSRFSGSGSGTDFTLTISSLQPEDFATYYCQQSYESPLTFGGGTKVEIK
B13: 370_G11 (antibody, V domains shown)
VH: EVQLLESGGGLVQPGGSLRLSCAASGFTFSSYSMNWVRQAPGKGLEWVASINYNSGYTSYADSVKGRFTISRDNSKNTLYLQMNSLRAEDTAVYYCARSANWHDTHLDYWGQGTLVTVSS
VL: DIQMTQSPSSLSASVGDRVTITCRASQSIVSYLNWYQQKPGKAPKLVIYAATSRASGVPSRFSGSGSGTDFTLTISSLQPEDFATYYCQQSYSLPLTFGGGTKVEIK
B14: 370_H01 (antibody, V domains shown)
VH: EVQLLESGGGLVQPGGSLRLSCAASGFTFSSYSMNWVRQAPGKGLEWVSGINYNSGYKGYADSVKGRFTISRDNSKNTLYLQMNSLRAEDTAVYYCARSANWHDTALDYWGQGTLVTVSS
VL: DIQMTQSPSSLSASVGDRVTITCRASQSIISYLNWYQQKPGKAPKLLIYAVTSRASGVPSRFSGSGSGTDFTLTISSLQPEDFATYYCQQSYDTPLTFGGGTKVEIK
B15: 371_A07 (antibody, V domains shown)
VH: EVQLLESGGGLVQPGGSLRLSCAASGFTFSDYSMNWVRQAPGKGLEWVSNINYNGGYKSYADSVKGRFTISRDNSKNTLYLQMNSLRAEDTAVYYCARSANWHDTALDYWGQGTLVTVSS
VL: DIQMTQSPSSLSASVGDRVTITCRASQSILSYLNWYQQKPGKAPKLVIYATTSRASGVPSRFSGSGSGTDFTLTISSLQPEDFATYYCQQSYDLPLTFGGGTKVEIK

The target in this assay is Human Fc (human). Description: ELISA, negative control. (In general: ELISA stands for enzyme-linked immunosorbent assay.)
For B1, the optical density was determined as 0.356 OD.
To B2 belongs 0.41 OD.
The same measure for B3: 0.304 OD; for B4: 0.354 OD; for B5: 0.315 OD.
Molecule B6 had an optical density of 0.356 OD.
To B7 belongs 0.268 OD; to B8, 0.483 OD.
The same measure for B9: 0.308 OD.
With B10, the optical density worked out at 0.337 OD.
The same measure for B11: 0.348 OD; for B12: 0.393 OD.
The same measure for B13: 0.529 OD; for B14: 0.436 OD.
For B15, the optical density came out at 0.336 OD.
